This note sets out measurements from article PMC8960791 (Communications Biology, 2022).

Sequences and labels used below:
B1: CA180 (antibody, V domains shown)
VH: QVQLVQSGAEVKKPGASVKVSCKASGYTFTSYGISWVRQAPGQGLEWMGWISAYNGNTNYAQKLQGRVTMTTDTSTSTAYMELRSLRSDDTAVYYCARDLGYSSSWYTSNWFDPWGQGTLVTVSS
VL: QSALTQPASVSGSPGQSITISCTGTSSDVGSYNLVSWYQQHPGKAPKLMIYEGSKRPSGVSNRFSGSKSGNTASLTISGLQAEDEADYYCCSYAGSSTVVFGGGTKLTVL
B2: CA171 (antibody, V domains shown)
VH: EVQLVESGGGLVQPGGSLRLSCAASGFTFSSYSMNWVRQAPGKGLEWVSYISSSSSTIYYADSVKGRFTISRDNAKNSLYLQMNSLRAEDTAVYYCARTFYSNYLDAFDIWGQGTMVTVSS
VL: EIVLTQSPDTLSMCPGERATLSCRASQSVSSYLAWYQQKPGQAPRLLIYDASNRATGIPARFSGSGSGTDFTLTISSLEPEDFAVYYCQQRSNWLSMYTFGQGTKLEIK
B3: CA170 (antibody, V domains shown)
VH: EVQLVESGGGLVKPGGSLRLSCAASGFTFSSYSMNWVRQAPGKGLEWVSSISSSSSYIYYADSVKGRFTISRDNAKNSLYLQMNSLRAEDTAVYYCARDRDLLDAFDIWGQGTMVTVSS
VL: SYVLTQPPSVSVAPGQTARITCGGNNIGSKSVHWYQQKPGQAPVLVVYDDSDRPSGIPERFSGSNSGNTATLTISRVEAGDEADYYCQVWDSSSDHPWVFGGGTKLTVL
B4: CA173 (antibody, V domains shown)
VH: EVQLVESGGGLVKPGGSLRLSCAASGFTFSSYSMNWVRQAPGEGLEWVSSISSSSTYIYYADSVKGRFTISRDNAKNSLYLQMNSLRAEDTAVYYCARDRPAGSSSLGSGYFDLWGRGTLVTVSS
VL: not shown
B5: CA175 (antibody, V domains shown)
VH: EVQLVESGGGLVQPGGSLRLSCAASGFTFSTYPMNWVRQAPGKGLEWVSYISSSSSTIYYADCVKGRFTISRDNAKNSLYLQMNSLRDEDTAVYYCARYYIAYGMDVWGQGTTVTVSS
VL: DIQMTQSPSSMSASVGDRVTITCRASQGISNYLAWFQQKPGKAPKRLIYGASSLHRGVPSRFSGSGSGTEFTLTITSLQPEDFATYYCLQHNTYPRTFGQGTKVEIK
B6: CA168 (antibody, V domains shown)
VH: QVQLVQSGAEVKKPGSSVKVSCKASGGTFSSYAISWVRQAPGQGLEWMGGIIPIFGTANYAQKFQGRVTITADKSTSTAYMELSSLRSEDTAVYYCARALTYYDFPDYGMDVWGQGTTVTVSS
VL: QSALTQPPSASGSPGQSVTISCTGTSSDVGGYNYVSWYQQHPGKVPKLMIYEVTKRPSGVPDRFSGSKSGNTASLTVSGLQAEDEADYYCSSYAGSNNLVFGGGTKLTVL
B7: CA177 (antibody, V domains shown)
VH: RCSCRSRAPGLVKPSETLSLTCTVSGGSISSYYWSWIRQPPGKGLEWIGYIYYSGSTNYNPSLKSRVTISVDTSKNQFSLKLSSVTAADTAVYYCASHDYTDHAAGYWGQGTLVTVSS
VL: not shown
B8: CA178 (antibody, V domains shown)
VH: QVQLVQSGAEVKKPGSSVKVSCKASGGTFSSYAISWVRQAPGQGLEWMGGIIPIFGTANYAQKFQGRVTITADESTSTAYMELSSLRSEDTAVYYCARDYGGSYYYEYFQHWGQGTLVTVSS
VL: not shown
B9: CA172 (antibody, V domains shown)
VH: QVQLVESGGGLVKPGGSLRLSCAASGFTFSDYYMSWIRQAPGKGLEWVSYISSSSSYTNYADSVKGRFTISRDNAKNSLYLQMNSLRAEDTAVYYCARALRYFDWYDYWGQGTLVTVSS
VL: EIVLTQSPDFQSVTPKGKVTITCRASQSIGSSLHWYQQKPDQSPKLLIKYASQSFSGVPSRFSGSGSGTEFTLTISSLQPEDFATYYCQQLNSYSPITFGQGTRLEIK
B10: CA169 (antibody, V domains shown)
VH: EVQLVESGGGLVKPGGSLRLSCAASGFTFSSYSMNWVRQAPGKGLEWVSSISSSSSYIYYADSVKGRFTISRDNAKNSLYLQMNSLRAEDTAVYYCASGVLLEAFDYWGQGTLVTVSS
VL: SYVLTQPPSVSVAPGQTARITCGGNNIGSKSVHWYQQKPGQAPVLVVYDDSDRPSGIPERFSGSNSGNTATLTISRVEAGDEADYYCQVWDSSSDHVVFGGGTKLTVL
B11: CA176 (antibody, V domains shown)
VH: QVQLVESGGGVVQPGRSLRLSCAASGFTFSSYGMHWVRQAPGKGLEWVAVISYDGSNKYYADSVKGRFTISRDNSKNTLYLQMNSLRAEDTAVYYCAKDEGSSDFWSGYYASFDYWGQGTLVTVSS
VL: DIQMTQSPISLSASVGDRVTITCRASQDISNYLTWYQQKPGKAPKLLIYAASSLQSGVPSRFSGSGSGTDFTLTISNLQPEDFATYYCQQNYSYPCTFGQGTKVEIK

This assay addresses soluble HLA-E-VL9, HLA-E*01:03 heavy chain refolded with β2-microglobulin and synthetic VL9 peptide (Homo sapiens, HLA-E*01:03, strain).
Take B1: the binding result is “binds”.
Then B2, with “binds”; and B3, with “binds”; and B4, with “binds”.
To B5 belongs “binds”; to B6, “binds”; to B7, “binds”.
Then B8, with “binds”; and B9, with “binds”; and B10, with “binds”.
With B11, the binding result is listed as “binds”.
